US7608695B2, “Substance with antithrombotic activity and method for detecting glycokallidin” (Ajinomoto Co., Inc., priority 1998, dated 2009)

Key:
[1] = target: T1, binding of von Willebrand factor and chimeric protein (glycoprotein Ib) (Homo sapiens, UniProt P04275+P07359); experiment: Detection of glycocalicin in plasma by ELISA using anti-mouse IgG-Fc antibodies; design: made in house; host or cells: CHOdhfr- cells transfected with pSDGPIbIgG1Fc; unpurified serum-free culture supernatant; conditions: diluted human plasma, based on reported blood concentration about 2 μg/ml
Procedure: Immobilization of a mixed solution of von Willebrand factor and botrocetin on a 96-well multititer plate was attained as follows. First, a physiological saline solution of von Willebrand factor (250 μg/ml) and a physiological saline solution of botrocetin (500 μg/ml), which were prepared in a conventional manner, were appropriately diluted, and mixed at the concentration ratios shown in FIG. 2. Then, 50 μl of each mixture was added to each well of a 96-well multititer plate (Maxisorp, produced by Nunc). […]
Each well was washed 5 times with TBS (150 μl) containing 0.05% Tween-20, and added with 100 μl of 100 mM NaHCO3 solution containing 10 mM MgCl2, in which p-nitrophenylphosphate was dissolved at 1 mg/ml, to carry out the color development reaction for about 1 hour. After the color development, absorbance at 405 nm was measured.
The detection was carried out in the same manner as that of Example 4 <1> except that von Willebrand factor was immobilized by using a mixed solution (TBS) containing 2.5 μg/ml of von Willebrand factor and 2.5 μg/ml of botrocetin, and a binding inhibition substance of which inhibitory activity was desired to be measured was added to the reaction of the immobilized von Willebrand factor and the culture supernatant of the chimeric protein producing cells. […]

[2] = target: T1, binding of von Willebrand factor and chimeric protein (glycoprotein Ib); experiment: Detection of glycocalicin in plasma using chimeric protein labeled with europium (Eu); design: made in house; host or cells: CHOK1 cells transfected with pMikGPIbFc; purified on a Protein A column and labelled with europium; conditions: diluted human plasma, based on reported blood concentration about 2 μg/ml
Procedure: The detection was carried out in the same manner as that of Example 4 <2> except that svon Willebrand factor was immobilized by using a mixed solution (TBS) containing 2.5 μg/ml of von Willebrand factor and 2.5 μg/ml of botrocetin, and a binding inhibition substance of which inhibitory activity was desired to be measured was added to the reaction of the immobilized von Willebrand factor and the chimeric protein labeled with europium (Eu).
Each human plasma independently prepared in the same manner as the above <1> were successively diluted 2-fold with TBS (8 times of dilution in total), and 25 μl each of the diluted plasma was added to each well of a von Willebrand factor immobilized plate prepared in the same manner as in Example 5 <1> (microtitration plate DELFIA, 1244-550, produced by Pharmacia Biotech, was used as the base plate). Further, 25 μl a solution of the chimeric protein labeled with europium (Eu) in assay buffer prepared in the same manner as in Example 4 <1> (100 ng/ml, Assay Buffer; 1244-106, produced by Pharmacia Biotech) was added to each well of the plate for reaction. The subsequent washing and measurement were performed in the same manner as in Example 5 <2>, and the average values of the results are shown in FIG. 7.

[3] = tested on: anti-glycocalicin antibodies; conditions: competitive ELISA, literature; cited from earlier work

## glycocalicin: enzymatically cleaved extracellular portion of platelet membrane glycoprotein Ibα chain, about 135 kDa
[1]
  Glycocalicin concentration showing 50% binding inhibition: about 400 ng/ml
[2]
  Glycocalicin concentration showing 50% binding inhibition: about 60 ng/ml
[3]
  IC50 value of the glycocalicin concentration showing competitive inhibition: about 4 μg/ml
